Patent US20020123614A1

Key:
Details in all cases: remark: other sources report otherwise
[1] = target: T1, recombinant ICAM-1 Fc chimera, P05362; test: BIAcore; Kon calculated by Koff/KD
T1 chain: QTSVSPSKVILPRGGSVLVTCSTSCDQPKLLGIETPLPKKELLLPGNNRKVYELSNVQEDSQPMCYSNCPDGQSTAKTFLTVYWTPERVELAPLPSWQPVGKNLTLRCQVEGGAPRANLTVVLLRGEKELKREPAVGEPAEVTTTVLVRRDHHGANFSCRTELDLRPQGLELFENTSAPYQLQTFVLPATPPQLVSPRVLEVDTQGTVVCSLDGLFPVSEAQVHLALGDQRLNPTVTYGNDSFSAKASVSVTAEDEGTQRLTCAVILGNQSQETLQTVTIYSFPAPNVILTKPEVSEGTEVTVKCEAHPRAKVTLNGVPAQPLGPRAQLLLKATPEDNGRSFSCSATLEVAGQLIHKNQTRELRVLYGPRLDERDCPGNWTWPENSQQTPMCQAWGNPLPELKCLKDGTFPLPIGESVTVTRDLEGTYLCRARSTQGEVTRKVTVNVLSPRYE

[2] = target: T1, recombinant ICAM-1 Fc chimera, P05362; test: BIAcore; dissociation phase, 1:1 model
[3] = target: T1, recombinant ICAM-1 Fc chimera, P05362; test: BIAcore; Scatchard plots at steady state

B1: recombinant soluble wild-type αL I-domain (G128-Y307), E. coli, P20701 153-332 (receptor)
chain: GNVDLVFLFDGSMSLQPDEFQKILDFMKDVMKKLSNTSYQFAAVQFSTSYKTEFDFSDYVKRKDPDALLKHVKHMLLLTNTFGAINYVATEVFREELGARPDATKVLIIITDGEATDSGNIDAAKDIIRYIIGIGKHFQTKESQETLHKFASKPASEFVKILDTFEKLKDLFTELQKKIY
- kon [1]: 2220 M⁻¹ s⁻¹
- koff [2]: 3 s⁻¹
- Kd [3]: 1350 µM
